Assay results published in the supplement of paper PMC10126150.
± gives the standard deviation of the averaged measurements.

Test system: ATP
Assay: switch fluorescence ratio, 500 uM ATP over buffer (Cy3 cluster intensity, sum of 5 cycles each) (fold (ratio)); higher = stronger signal-on switching upon ATP binding; sequences stand for … in TCGTCGGCAGCGTCAGATGTGTATAAGAGACAGTTTTTTTTTTTTTTTTTTTTTTTTT…TC
Conditions: aptamer strand: ATP DNA aptamer (quencher-CACCTGGGGGAGTATTGCGGAGGAAGG + anchor), 100 nM annealed; ATP concentration: 500 uM
Method in brief: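 Clusters carrying Cy3-labelled switching strands on a modified Illumina MiSeq flow-cell were annealed to 100 nM quencher-labelled ATP aptamer and imaged in selection buffer. They were imaged again after 15 min with 500 uM ATP at 22 °C, over five buffer/ATP cycles with NaOH stripping and re-annealing in between. For each cluster, the fluorescence ratio is the summed Cy3 intensity of the target cycles divided by that of the buffer cycles, averaged per switch-domain sequence. Clusters outside 100-1000 RFU were left out.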
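Also: ATP exposure 15 min at 22 °C before imaging.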

ATCGCGACTA
switch fluorescence ratio: 1.05 ± 0.036

AAGCGGGG
switch fluorescence ratio: 1.006 ± 0.002

TTAAAAATCA
switch fluorescence ratio: 0.984 ± 0.025

TTTCCGGAAT
switch fluorescence ratio: 1.661 ± 0.011

CCCCCCGGGG
switch fluorescence ratio: 1.61 ± 0.32

TCAGGGGGCT
switch fluorescence ratio: 1.03 ± 0.088

TTTGTTTCAT
switch fluorescence ratio: 1.04 ± 0.1

TATTGTGTAA
switch fluorescence ratio: 1 ± 0.023

GACAGGGGCG
switch fluorescence ratio: 1.19 ± 0.16

AATTTGGGCG
switch fluorescence ratio: 1 ± 0.04

CAAGCTTTCG
switch fluorescence ratio: 1.06 ± 0.048

ACGGGGGGTG
switch fluorescence ratio: 1.01 ± 0.077

GGGGACCGGT
switch fluorescence ratio: 1.054 ± 0.0023

GGGCTAGATG
switch fluorescence ratio: 1 ± 0.018

AATTGTTGGG
switch fluorescence ratio: 1.01 ± 0.041

CCAGAGGCTA
switch fluorescence ratio: 1.1475 ± 0.00019

TCGATTTGGT
switch fluorescence ratio: 0.9749 ± 0.008

TCCAACGTAT
switch fluorescence ratio: 1.493 ± 0.0064

CGCTGGCCGG
switch fluorescence ratio: 0.972 ± 0.037

ATTTTTATGG
switch fluorescence ratio: 0.996 ± 0.036

GGGTATGGGT
switch fluorescence ratio: 0.995 ± 0.043

GGTTAAGAGG
switch fluorescence ratio: 1.02 ± 0.041

AGCCTGCCCT
switch fluorescence ratio: 1.067 ± 0.0053

GTTGAAAATT
switch fluorescence ratio: 0.99 ± 0.021

TCTATTATAC
switch fluorescence ratio: 1.23 ± 0.13

CAAGGTAAGG
switch fluorescence ratio: 0.984 ± 0.011

ATTGGGGTTG
switch fluorescence ratio: 1 ± 0.017

AAAATTTATG
switch fluorescence ratio: 1.01 ± 0.038

TGGGCAGGCA
switch fluorescence ratio: 1 ± 0.028

TTATTGTAAG
switch fluorescence ratio: 0.9675 ± 0.006

AAGATTTAAG
switch fluorescence ratio: 1.02 ± 0.014

GGGTGGATTG
switch fluorescence ratio: 0.983 ± 0.039

CAGTGATTTA
switch fluorescence ratio: 0.981 ± 0.019

AAGTCGGGTG
switch fluorescence ratio: 1.08 ± 0.024

ATTGGGTGTC
switch fluorescence ratio: 0.985 ± 0.039

GATAAATGAT
switch fluorescence ratio: 1 ± 0.02

GCCTTAGAGT
switch fluorescence ratio: 1.03 ± 0.051

AAAAGTCGCT
switch fluorescence ratio: 1.03 ± 0.025

GCTGGGACGT
switch fluorescence ratio: 1 ± 0.025

TTCCGGTTTG
switch fluorescence ratio: 0.999 ± 0.054

GTGTAAGATG
switch fluorescence ratio: 1.0023 ± 0.0005

TGATTCAGGG
switch fluorescence ratio: 1.028 ± 0.0081

ATTGTGCATT
switch fluorescence ratio: 0.979 ± 0.052

CATGGGAGAC
switch fluorescence ratio: 0.986 ± 0.022

GCGGATTAGG
switch fluorescence ratio: 1.03 ± 0.0072

TCGGAAGTAT
switch fluorescence ratio: 0.9629 ± 0.0083

CGTAGCTTTG
switch fluorescence ratio: 1.086 ± 0.0028

TCCTGGTGCG
switch fluorescence ratio: 1.13 ± 0.024

TTGGTGTCTT
switch fluorescence ratio: 0.959 ± 0.011

TTTGACGGGG
switch fluorescence ratio: 1.04 ± 0.096

ATTAGTCTGC
switch fluorescence ratio: 0.996 ± 0.033

ATTGGTTTGT
switch fluorescence ratio: 0.998 ± 0.013

AGGGGTTAGC
switch fluorescence ratio: 0.974 ± 0.05

GAGGGGTTGC
switch fluorescence ratio: 1.09 ± 0.047

TTTTTTGTAT
switch fluorescence ratio: 1.02 ± 0.087

CTTGGGCCCT
switch fluorescence ratio: 0.979 ± 0.033

TTTCGGAAGG
switch fluorescence ratio: 0.988 ± 0.025

GCGGGTGGGG
switch fluorescence ratio: 1.05 ± 0.029

CATTCTTCGC
switch fluorescence ratio: 1.15 ± 0.029

TGTCAGGGGA
switch fluorescence ratio: 1.018 ± 0.007

TTAAAAATGA
switch fluorescence ratio: 1.02 ± 0.021

TGAATTTTTA
switch fluorescence ratio: 1 ± 0.011

TATCAGTGAT
switch fluorescence ratio: 1.02 ± 0.071

TCCAGGGCGA
switch fluorescence ratio: 1.16 ± 0.13

CGTGGGAGAG
switch fluorescence ratio: 0.983 ± 0.021

TAATTTGTGG
switch fluorescence ratio: 0.995 ± 0.023

CAATCTTGGG
switch fluorescence ratio: 0.97144 ± 0.00089

TTGTGCATTT
switch fluorescence ratio: 1.01 ± 0.011

ATGTGTACCC
switch fluorescence ratio: 1.04 ± 0.016

GCATGCATTG
switch fluorescence ratio: 0.97797 ± 0.0001

GAGCGTAGGG
switch fluorescence ratio: 0.9537 ± 0.0089

GGCTCAGGGC
switch fluorescence ratio: 0.9793 ± 0.0024

ATGCGAAGGT
switch fluorescence ratio: 1.04 ± 0.037

ATAAAATTTA
switch fluorescence ratio: 1.04 ± 0.03

AGAGCATTTG
switch fluorescence ratio: 1.01 ± 0.058

GCTGTATGTT
switch fluorescence ratio: 0.974 ± 0.022

CGCTTTAGTG
switch fluorescence ratio: 1.01 ± 0.014

TTGCACGTAA
switch fluorescence ratio: 1.66 ± 0.42

AGAAAGTGGT
switch fluorescence ratio: 0.992 ± 0.017

AAGGCCTATA
switch fluorescence ratio: 0.998 ± 0.0088

ACGGGTGGCG
switch fluorescence ratio: 0.95 ± 0.11

TTGCGAATGT
switch fluorescence ratio: 0.997 ± 0.038

CGCGACTGGT
switch fluorescence ratio: 0.994 ± 0.014

GGCGTCAAGG
switch fluorescence ratio: 0.996 ± 0.026

GGTTTTTTTG
switch fluorescence ratio: 1.02 ± 0.037

TGTAGGGGTC
switch fluorescence ratio: 1.01 ± 0.011

GATGTGAATT
switch fluorescence ratio: 1.02 ± 0.011

TTTGATATCC
switch fluorescence ratio: 1 ± 0.017

ATCTACATTA
switch fluorescence ratio: 1.04 ± 0.015

TGGGGGGGCT
switch fluorescence ratio: 1.02 ± 0.036

GGCGGCAGGG
switch fluorescence ratio: 1 ± 0.013

TCTGGATTGG
switch fluorescence ratio: 0.961 ± 0.029

TAATTTCTAC
switch fluorescence ratio: 1.005 ± 0.0054

CTTTGAGGTG
switch fluorescence ratio: 1.04 ± 0.069

TCGATTGGTG
switch fluorescence ratio: 1.01 ± 0.013

TTGTGTGGGT
switch fluorescence ratio: 0.993 ± 0.02

CCCGGCATCT
switch fluorescence ratio: 1.2197 ± 0.00016

TAGTTCTGGG
switch fluorescence ratio: 0.9428 ± 0.0012

TTTTACGACA
switch fluorescence ratio: 1.15 ± 0.014

TAGTTTTTCC
switch fluorescence ratio: 1.03 ± 0.037

GCGCCAGTTT
switch fluorescence ratio: 0.992 ± 0.02

TTCAGAGAAA
switch fluorescence ratio: 0.98 ± 0.034

GAGTATAATA
switch fluorescence ratio: 0.997 ± 0.025

TTGTAATTAG
switch fluorescence ratio: 1 ± 0.039

GATTTTCGAA
switch fluorescence ratio: 1 ± 0.041

AAGTGTTAG
switch fluorescence ratio: 0.966 ± 0.011

CAGGCGTTAG
switch fluorescence ratio: 1 ± 0.064

AGGTGGTGCT
switch fluorescence ratio: 0.991 ± 0.056

AACCTTGACG
switch fluorescence ratio: 1.07 ± 0.047

GTGGGAAAGT
switch fluorescence ratio: 1.04 ± 0.015

AGCATGGCTG
switch fluorescence ratio: 1.01 ± 0.001

AATGGTGCCT
switch fluorescence ratio: 0.996 ± 0.07

AAGTTACATT
switch fluorescence ratio: 1.05 ± 0.012

TCGTGGTGGT
switch fluorescence ratio: 0.974 ± 0.018

ATTATTGCGT
switch fluorescence ratio: 1.03 ± 0.04

GAAGGAAAGA
switch fluorescence ratio: 1.02 ± 0.037

CACGGTCTAA
switch fluorescence ratio: 1.03 ± 0.043

AAATGTCTTG
switch fluorescence ratio: 0.955 ± 0.043

ATTAATCGCT
switch fluorescence ratio: 0.9931 ± 0.0042

GTATAAGGGG
switch fluorescence ratio: 0.977 ± 0.026

TTTAATGGGA
switch fluorescence ratio: 1.03 ± 0.05

CAGTGCGGCT
switch fluorescence ratio: 1.007 ± 0.0046

TCTGGGAAAG
switch fluorescence ratio: 1 ± 0.013

CGGCAGAGGG
switch fluorescence ratio: 1.02 ± 0.022

TCAGTTGGTT
switch fluorescence ratio: 0.977 ± 0.064

ATCGGGTCGG
switch fluorescence ratio: 1.01 ± 0.03

TGCAAGTTTT
switch fluorescence ratio: 1.24 ± 0.33

TTTGGCAGGT
switch fluorescence ratio: 1.03 ± 0.026

CTTAAATGTA
switch fluorescence ratio: 0.982 ± 0.021

GGGGGGAACA
switch fluorescence ratio: 1.01 ± 0.029

ATAGTAAGCC
switch fluorescence ratio: 1.04 ± 0.031

CGAAATACGG
switch fluorescence ratio: 2.83 ± 0.18

GGATTAATCG
switch fluorescence ratio: 1 ± 0.015

GGTGCGTACG
switch fluorescence ratio: 1.01 ± 0.058

GTTTTTGGAC
switch fluorescence ratio: 0.982 ± 0.029

ATTCGAGGTT
switch fluorescence ratio: 0.987 ± 0.071

GGTGTAGCGC
switch fluorescence ratio: 1.015 ± 0.0075

AGCGCGCGGC
switch fluorescence ratio: 0.998 ± 0.013

TTTTACCCGC
switch fluorescence ratio: 1.11 ± 0.078

ATTAATCGGC
switch fluorescence ratio: 0.9735 ± 0.0033

GGTTTTCGAA
switch fluorescence ratio: 1.01 ± 0.042

TAGGGGAATT
switch fluorescence ratio: 0.967 ± 0.039

TTCATCGGCA
switch fluorescence ratio: 1.35 ± 0.47

CATAATCTAG
switch fluorescence ratio: 1.03 ± 0.013

GGGGGGCTTG
switch fluorescence ratio: 1.02 ± 0.043

GCCTTAGGTG
switch fluorescence ratio: 1.4 ± 0.12

AGGCGAGGGA
switch fluorescence ratio: 1.02 ± 0.0049

TCATGGATAG
switch fluorescence ratio: 1.006 ± 0.002

CGTGCACAAA
switch fluorescence ratio: 0.9815 ± 0.0059

ATCGTTGTAC
switch fluorescence ratio: 1.18 ± 0.048

AAGGGCATTG
switch fluorescence ratio: 0.998 ± 0.015

CGATAGGGGT
switch fluorescence ratio: 1.05 ± 0.074

GAATCTATTC
switch fluorescence ratio: 1.01 ± 0.061

GATTGAATTG
switch fluorescence ratio: 0.948 ± 0.027

TTTAGAACTT
switch fluorescence ratio: 1.01 ± 0.077

AGACTGATAC
switch fluorescence ratio: 1.08 ± 0.025

TGATGGGGCT
switch fluorescence ratio: 0.975 ± 0.038

TTACCATCCT
switch fluorescence ratio: 1.19 ± 0.029

ACTGGGGGAC
switch fluorescence ratio: 1.04 ± 0.036

CATGAAACAT
switch fluorescence ratio: 1.06 ± 0.048

GTTTTGGGAG
switch fluorescence ratio: 1.02 ± 0.033

CACTTATGTG
switch fluorescence ratio: 0.99 ± 0.038

AAATCGGGAA
switch fluorescence ratio: 1.34 ± 0.44

CTGGGTCACA
switch fluorescence ratio: 1.02 ± 0.011

AGTTAGGGTT
switch fluorescence ratio: 0.999 ± 0.039

AATGAGTTTT
switch fluorescence ratio: 0.998 ± 0.027

GTTTTTTTGG
switch fluorescence ratio: 1 ± 0.018

CGGTTACCGT
switch fluorescence ratio: 0.986 ± 0.013

AGGCCAGGGT
switch fluorescence ratio: 1.04 ± 0.021

AAGGGACTGC
switch fluorescence ratio: 0.97 ± 0.018

TCATCGTCT
switch fluorescence ratio: 1.01 ± 0.023

TATGCTTATT
switch fluorescence ratio: 1 ± 0.024

GAAGACCGGT
switch fluorescence ratio: 0.985 ± 0.047

CAACATTTCA
switch fluorescence ratio: 1.01 ± 0.022

CTCCAGAGGG
switch fluorescence ratio: 2.47 ± 1.8

GAGGGGTTAC
switch fluorescence ratio: 1.01 ± 0.05

GGGATTTGGG
switch fluorescence ratio: 0.9745 ± 0.0088

GGTTTGGTTG
switch fluorescence ratio: 1.003 ± 0.008

ATAGATGGTG
switch fluorescence ratio: 0.987 ± 0.025

CGAGGGCCGG
switch fluorescence ratio: 0.9974 ± 0.0081

CGGGGTGAGA
switch fluorescence ratio: 0.9809 ± 0.0069

GATGTATATT
switch fluorescence ratio: 1.002 ± 0.004

CCTAGCGCGC
switch fluorescence ratio: 1.09 ± 0.043

GGACATGTAG
switch fluorescence ratio: 0.965 ± 0.024

TCGAGCAGGG
switch fluorescence ratio: 1.07 ± 0.055

TTGCTTTATT
switch fluorescence ratio: 0.987 ± 0.016

TTTGAATTAC
switch fluorescence ratio: 1.17 ± 0.062

ATGCGGGTTT
switch fluorescence ratio: 1.02 ± 0.018

AAATGCTCGG
switch fluorescence ratio: 0.993 ± 0.03

CACTGGGGGC
switch fluorescence ratio: 1.02 ± 0.036

CAAACTTTGG
switch fluorescence ratio: 1.006 ± 0.0077

GTGGATATAG
switch fluorescence ratio: 0.99333 ± 0.00046

AGAGTGCGGT
switch fluorescence ratio: 1.011 ± 0.006

TTTTTAGTTC
switch fluorescence ratio: 0.98 ± 0.027

TTTTCTTTTC
switch fluorescence ratio: 1.09 ± 0.084

TGGGTGGGTG
switch fluorescence ratio: 1.04 ± 0.053

GGGTTGTCGC
switch fluorescence ratio: 1.01 ± 0.024

ATGTGCTGTT
switch fluorescence ratio: 0.99802 ± 8.7e-05

TGTTTTTGTA
switch fluorescence ratio: 1.07 ± 0.13

ATGAATGTTT
switch fluorescence ratio: 1 ± 0.026
